Assay results reported in patent publication US20130079278A1 (Novo Nordisk, published 2013).
*1 amine or outer side, *2 acyl side, *3 side chain or, on linkers, in order; H or OH if unused. Where no end group is shown, it is not given here. Side-chain parts run from the residue outwards. The star is where a group is joined. C20 diacid = O=C(O)CCCCCCCCCCCCCCCCCCC(=O)*; C18 diacid = O=C(O)CCCCCCCCCCCCCCCCC(=O)*; C16 diacid = O=C(O)CCCCCCCCCCCCCCC(=O)*; γGlu = O=C(O)[C@H](CCC(=O)[*:2])N[*:1]; C14 diacid = O=C(O)CCCCCCCCCCCCC(=O)*; AEEA = NCCOCCOCC(=O)O

B1: N^ε24-[(4S)-4-carboxy-4-[[(4S)-4-carboxy-4-[[2-[2-[2-[[2-[2-[2-[[(4S)-4-carboxy-4-(17-carboxyheptadecanoylamino)butanoyl]amino]ethoxy]ethoxy]acetyl]amino]ethoxy … (peptide)
peptide: HSQGTFTSDYSKYLDTRRAQDFVK([γGlu-γGlu-AEEA-AEEA-γGlu-C18 diacid])WLLST-NH2
modifications: N-terminus assumed
SMILES: CC(C)C[C@H](NC(=O)[C@H](Cc1c[nH]c2ccccc12)NC(=O)[C@H](CCCCNC(=O)CC[C@H](NC(=O)CC[C@H](NC(=O)COCCOCCNC(=O)COCCOCCNC(=O)CC[C@H](NC(=O)CCCCCCCCCCCCCCCCC(=O)O)C(=O)O)C(=O)O)C(=O)O)NC(=O)[C@@H](NC(=O)[C@H](Cc1ccccc1)NC(=O)[C@H](CC(=O)O)NC(=O)[C@H](CCC(N)=O)NC(=O)[C@H](C)NC(=O)[C@H](CCCNC(=N)N)NC(=O)[C@H](CCCNC(=N)N)NC(=O)[C@@H](NC(=O)[C@H](CC(=O)O)NC(=O)[C@H](CC(C)C)NC(=O)[C@H](Cc1ccc(O)cc1)NC(=O)[C@H](CCCCN)NC(=O)[C@H](CO)NC(=O)[C@H](Cc1ccc(O)cc1)NC(=O)[C@H](CC(=O)O)NC(=O)[C@H](CO)NC(=O)[C@@H](NC(=O)[C@H](Cc1ccccc1)NC(=O)[C@@H](NC(=O)CNC(=O)[C@H](CCC(N)=O)NC(=O)[C@H](CO)NC(=O)[C@@H](N)Cc1c[nH]cn1)[C@@H](C)O)[C@@H](C)O)[C@@H](C)O)C(C)C)C(=O)N[C@@H](CC(C)C)C(=O)N[C@@H](CO)C(=O)N[C@H](C(N)=O)[C@@H](C)O
B2: N^ε24-[(4S)-4-carboxy-4-[[(4S)-4-carboxy-4-[[2-[2-[2-[[2-[2-[2-[[(4S)-4-carboxy-4-(17-carboxyheptadecanoylamino)butanoyl]amino]ethoxy]ethoxy]acetyl]amino]ethoxy … (peptide)
peptide: HSQGTFTSDYSRYLESRRAQDFVK([γGlu-γGlu-AEEA-AEEA-γGlu-C18 diacid])WLLST
modifications: not fully specified; printed as Nε24-[(4S)-4-carboxy-4-[[(4S)-4-carboxy-4-[[2-[2-[2-[[2-[2-[2-[[(4S)-4-carboxy-4-(17-carboxyheptadecanoylamino)butanoyl]amino]ethoxy]ethoxy]acetyl]amino]ethoxy]ethoxy]acetyl]amino]butanoyl]amino]butanoyl]-[Arg12,Glu15,Lys24,Leu27,Ser25]-Glucagon

biological target: glucagon receptor (human, UniProt P47871 26-477); experiment: cell-based or functional assay
Sequence (P47871 26-477): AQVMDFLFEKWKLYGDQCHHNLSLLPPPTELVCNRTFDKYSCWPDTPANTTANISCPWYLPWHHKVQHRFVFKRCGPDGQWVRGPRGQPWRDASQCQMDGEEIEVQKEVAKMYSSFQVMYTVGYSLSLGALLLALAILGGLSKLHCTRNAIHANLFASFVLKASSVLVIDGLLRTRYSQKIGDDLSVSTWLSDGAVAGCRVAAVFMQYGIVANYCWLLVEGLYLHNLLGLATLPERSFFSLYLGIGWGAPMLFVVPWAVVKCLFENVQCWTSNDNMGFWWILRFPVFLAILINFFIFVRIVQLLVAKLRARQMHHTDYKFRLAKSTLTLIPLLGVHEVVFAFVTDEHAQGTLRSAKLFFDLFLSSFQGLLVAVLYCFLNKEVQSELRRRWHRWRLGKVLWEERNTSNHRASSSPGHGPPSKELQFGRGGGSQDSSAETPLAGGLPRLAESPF

Point of comparison: HSQGTFTSDYSRYLDTRRAQDFVK([γGlu-γGlu-AEEA-AEEA-γGlu-C18 diacid])WLLNT, “Assay (I) Glucagon [EC50]” value 0.031 nM. Against it:
- HSQGTFTSDYSKYLDVRRAQDFVK([γGlu-γGlu-AEEA-AEEA-γGlu-C18 diacid])WLLST — 9.9-fold higher, 0.307 nM
- HSQGTFTSDYSKYLESRRAQDFVK([γGlu-AEEA-AEEA-γGlu-C18 diacid])WLLNL — 61-fold higher, 1.9 nM
- HSQGTFTSDYSRYLDLRRAQDFVK([γGlu-γGlu-γGlu-C18 diacid])WLLST — 43-fold higher, 1.32 nM
- HSQGTFTSDYSRYLDVRRAQDFVK([γGlu-γGlu-AEEA-AEEA-γGlu-C18 diacid])WLLST — 43-fold higher, 1.32 nM
- HSQGTFTSDYSKYLDARRAQDFVK([γGlu-γGlu-AEEA-AEEA-γGlu-C18 diacid])WLLST — 1.6-fold higher, 0.049 nM
- HSHGTFTSDYSKYLDERRAKDFVK([γGlu-γGlu-AEEA-AEEA-γGlu-C18 diacid])WLLST — 7.6-fold higher, 0.237 nM
- HSQGTFTSDYSRYLDLRRAQDFVK([AEEA-AEEA-γGlu-γGlu-γGlu-C18 diacid])WLLST — 3.2-fold higher, 0.1 nM
- HSQGTFTSDYSKYLDTRRAQDFVK([γGlu-γGlu-AEEA-AEEA-γGlu-C18 diacid])WLLST — 2.4-fold higher, 0.075 nM
- HSQGTFTSDYSKYLDTRRAQEFVK([γGlu-AEEA-AEEA-γGlu-C18 diacid])WLLNL — 5.9-fold higher, 0.183 nM
- HSQGTFTSDYSKYLESRRAQDFVK([γGlu-AEEA-AEEA-γGlu-C18 diacid])WLLNV — 30-fold higher, 0.92 nM
- HSQGTFTSDYSRYLDLRRAQDFVK([γGlu-γGlu-AEEA-AEEA-γGlu-C18 diacid])WLLST — 8.2-fold higher, 0.255 nM
- HSQGTFTSDYSKYLDTRRAQDFVK([γGlu-AEEA-AEEA-γGlu-C18 diacid])WLLNI — 13-fold higher, 0.413 nM
- HSHGTFTSDYSKYLDSRRAKDFVK([γGlu-γGlu-AEEA-AEEA-γGlu-C18 diacid])WLLST — 8-fold higher, 0.249 nM
- HSQGTFTSDYSRYLDERRAQDFVK([γGlu-γGlu-AEEA-AEEA-γGlu-C18 diacid])WLLST — 4.9-fold higher, 0.153 nM
- HSQGTFTSDVSKYLDTRRAQEFVK([γGlu-γGlu-AEEA-AEEA-γGlu-C18 diacid])WLLST — 4.5-fold higher, 0.139 nM
- HSQGTFTSDYSRYLDRRRAQDFVK([γGlu-γGlu-AEEA-AEEA-γGlu-C18 diacid])WLLST — 11-fold higher, 0.355 nM
- HSQGTFTSDYSRYLDLRRAQDFVK([γGlu-γGlu-AEEA-AEEA-γGlu-C20 diacid])WLLST — 35-fold higher, 1.07 nM
- HSQGTFTSDYSKYLDERRAQDFVK([γGlu-γGlu-AEEA-AEEA-γGlu-C18 diacid])WLLST — 4.2-fold higher, 0.13 nM
- HSQGTFTSDYSRYLDFRRAQDFVK([γGlu-γGlu-AEEA-AEEA-γGlu-C18 diacid])WLLST — 53-fold higher, 1.64 nM
- HSQGTFTSDYSRYLDLRRAQDFVK([γGlu-γGlu-AEEA-AEEA-γGlu-C18 diacid])WLLTT — 24-fold higher, 0.754 nM
- HSQGTFTSDYSRYLDLRRAQDFVK([γGlu-γGlu-AEEA-AEEA-γGlu-C18 diacid])WLLIT — 54-fold higher, 1.67 nM
- HSQGTFTSDYSKYLESRRAQDFVK([γGlu-AEEA-AEEA-γGlu-C18 diacid])WLLNI — 36-fold higher, 1.12 nM
- B1 — within 1.5-fold, 0.039 nM
- HSQGTFTSDYSRYLDIRRAQDFVK([γGlu-γGlu-AEEA-AEEA-γGlu-C18 diacid])WLLST — 34-fold higher, 1.04 nM
- HSHGTFTSDYSKYLDSRRAQDFVK([γGlu-γGlu-AEEA-AEEA-γGlu-C18 diacid])WLLST — 4.2-fold higher, 0.129 nM
- HSQGTFTSDYSKYLESRRAQDFVK([γGlu-γGlu-AEEA-γGlu-C18 diacid])WLLST — 9-fold higher, 0.28 nM
- HSQGTFTSDYSKYLDTRRAQEFVK([γGlu-AEEA-AEEA-γGlu-C18 diacid])WLLNV — 3.9-fold higher, 0.12 nM
- HSQGTFTSDYSKYLDTRRAQDFVK([AEEA-γGlu-γGlu-AEEA-γGlu-C18 diacid])WLLST — 2.5-fold higher, 0.078 nM
- B2 — 24-fold higher, 0.748 nM
- HSQGTFTSDYSKYLDTRRAQEFVK([γGlu-γGlu-AEEA-AEEA-γGlu-C18 diacid])WLLST — 2.3-fold higher, 0.072 nM
- HSQGTFTSDYSRYLDLRRAQDFVK([γGlu-γGlu-AEEA-AEEA-γGlu-C16 diacid])WLLST — 2.2-fold higher, 0.067 nM
- HSQGTFTSDYSRYLDLRRAQDFVK([γGlu-γGlu-AEEA-AEEA-γGlu-C14 diacid])WLLST — 5.2-fold lower, 0.006 nM
- HSQGTFTSDYSRYLDARRAQDFVK([γGlu-γGlu-AEEA-AEEA-γGlu-C18 diacid])WLLST — 5.1-fold higher, 0.158 nM
- HSQGTFTSDYSRYLDLRRAQDFVK([γGlu-AEEA-AEEA-γGlu-γGlu-C18 diacid])WLLST — 29-fold higher, 0.91 nM
- HSQGTFTSDYSRYLDTRRAQDFVK([γGlu-γGlu-AEEA-AEEA-γGlu-C18 diacid])WLLST — 9.6-fold higher, 0.297 nM
- HSQGTFTSDYSKYLDIRRAQDFVK([γGlu-γGlu-AEEA-AEEA-γGlu-C18 diacid])WLLST — 2.7-fold higher, 0.084 nM
